Measurements reported in patent US20150297748A1 (Daiichi Sankyo, published 2015).
Values belong to the binder of their own block, whether it stands above or below them.

What was measured:
[1] = biological target: CD33 (UniProt P20138 18-364, limits assumed); assay: cell-based or functional assay
[2] = biological target: T1, CD70 (UniProt P32970 1-193, limits assumed); assay: cell-based or functional assay
T1 sequence (looked up): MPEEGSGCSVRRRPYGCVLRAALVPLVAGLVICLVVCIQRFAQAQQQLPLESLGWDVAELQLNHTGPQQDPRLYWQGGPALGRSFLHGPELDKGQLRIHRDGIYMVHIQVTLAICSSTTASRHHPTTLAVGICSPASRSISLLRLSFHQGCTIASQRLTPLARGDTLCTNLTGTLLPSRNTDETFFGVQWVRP

[3] = biological target: T2, human B7-H3 variant 1 (human, UniProt Q5ZPR3 27-534); assay: flow cytometry: 10 µg/mL M30 on CCRF-CEM clones transfected with pcDNA3.1-B7-H3, detected with fluorescein-conjugated goat anti-mouse IgG
T2 construct: also called 4Ig-B7-H3
T2 sequence: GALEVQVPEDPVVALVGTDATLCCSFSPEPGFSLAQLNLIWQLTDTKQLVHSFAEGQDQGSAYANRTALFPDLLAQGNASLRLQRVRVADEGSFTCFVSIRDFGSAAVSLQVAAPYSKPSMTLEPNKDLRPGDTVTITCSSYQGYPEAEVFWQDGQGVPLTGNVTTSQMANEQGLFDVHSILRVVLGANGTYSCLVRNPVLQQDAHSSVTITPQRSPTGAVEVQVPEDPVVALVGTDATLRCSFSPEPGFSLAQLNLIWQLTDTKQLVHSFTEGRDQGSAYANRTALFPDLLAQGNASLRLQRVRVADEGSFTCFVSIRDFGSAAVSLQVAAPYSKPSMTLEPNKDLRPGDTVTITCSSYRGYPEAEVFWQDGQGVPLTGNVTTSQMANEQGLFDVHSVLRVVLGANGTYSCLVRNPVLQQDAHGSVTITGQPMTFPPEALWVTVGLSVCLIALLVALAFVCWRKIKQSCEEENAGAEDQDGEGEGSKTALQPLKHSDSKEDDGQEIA
Procedure: Flow cytometry was used for confirming B7-H3 expression in each recovered clone. Specifically, each recovered clone was washed twice with PBS containing 5% FBS, thereafter suspended by the addition of PBS containing 5% FBS and 10 μg/mL M30, and left standing at 4° C. for 30 minutes. The clone was washed twice with PBS containing 5% FBS, thereafter suspended by the addition of Fluorescein-conjugated goat IgG fraction to mouse IgG (Whole Molecule) (455493, manufactured by ICN Pharmaceuticals, Inc.) diluted 1000-fold with PBS containing 5% FBS, and left standing at 4° C. for 30 minutes. The clone was washed twice with PBS containing 5% FBS, thereafter resuspended in PBS containing 5% FBS, and detected by using a flow cytometer (FC500: Beckman Coulter, Inc.).

CD33, sequence (P20138 18-364 limits assumed): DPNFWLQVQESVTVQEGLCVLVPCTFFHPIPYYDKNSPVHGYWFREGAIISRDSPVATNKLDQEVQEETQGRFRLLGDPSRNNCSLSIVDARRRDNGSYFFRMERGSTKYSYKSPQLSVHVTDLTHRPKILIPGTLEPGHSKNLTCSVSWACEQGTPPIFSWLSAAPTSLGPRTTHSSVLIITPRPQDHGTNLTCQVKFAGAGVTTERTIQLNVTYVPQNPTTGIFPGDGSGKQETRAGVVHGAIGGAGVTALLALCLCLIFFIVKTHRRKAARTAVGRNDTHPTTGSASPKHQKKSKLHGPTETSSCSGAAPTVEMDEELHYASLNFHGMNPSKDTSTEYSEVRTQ

B1: Antibody-drug conjugate (9) (antibody, V domains shown)
VH: EVQLVQSGAEVKKPGSSVKVSCKASGYTITDSNIHWVRQAPGQSLEWIGYIYPYNGGTDYNQKFKNRATLTVDNPTNTAYMELSSLRSEDTAFYYCVNGNPWLAYWGQGTLVTVSS
VL: DIQLTQSPSTLSASVGDRVTITCRASQSLDNYGIRFLTWFQQKPGKAPKLLMYAASNQGSGVPSRFSGSGSGTEFTLTISSLQPDDFATYYCQQTKEVPWSFGQGTKVEVKR
modifications: drug-linker 6-maleimidohexanoyl-GGFG-NH-(CH2)3-C(=O)-exatecan (compound of Process 3 of Example 2) on cysteines of the reduced hinge disulfide bonds; average 3.7 per antibody molecule; positions not given
IC50, cytotoxic activity against the HL-60 cells [1]: < 0.1 nM

B2: Antibody-drug conjugate (25) (antibody, V domains shown)
VH: EVQLVQSGAEVKKPGSSVKVSCKASGYTITDSNIHWVRQAPGQSLEWIGYIYPYNGGTDYNQKFKNRATLTVDNPTNTAYMELSSLRSEDTAFYYCVNGNPWLAYWGQGTLVTVSS
VL: DIQLTQSPSTLSASVGDRVTITCRASQSLDNYGIRFLTWFQQKPGKAPKLLMYAASNQGSGVPSRFSGSGSGTEFTLTISSLQPDDFATYYCQQTKEVPWSFGQGTKVEVKR
modifications: drug-linker 3-maleimidopropanoyl-NH-(CH2CH2O)2-CH2CH2-C(=O)-GGFG-NH-(CH2)3-C(=O)-exatecan (compound of Process 1 of Example 14) on cysteines of the reduced hinge disulfide bonds; average 7.3 per antibody molecule; positions not given
IC50, cytotoxic activity against the NOMO-1 cells [1]: < 0.1 nM

B3: Antibody-drug conjugate (10) (antibody, V domains shown)
VH: QVQLVQSGAEVKKPGASVKVSCKASGYTFTNYGMNWVRQAPGQGLKWMGWINTYTGEPTYADAFKGRVTMTRDTSISTAYMELSRLRSDDTAVYYCARDYGDYGMDYWGQGTTVTVSS
VL: DIVMTQSPDSLAVSLGERATINCRASKSVSTSGYSFMHWYQQKPGQPPKLLIYLASNLESGVPDRFSGSGSGTDFTLTISSLQAEDVAVYYCQHSREVPWTFGQGTKVEIKR
modifications: drug-linker 6-maleimidohexanoyl-GGFG-NH-(CH2)3-C(=O)-exatecan (compound of Process 3 of Example 2) on cysteines of the reduced hinge disulfide bonds; average 3.2 per antibody molecule; positions not given
IC50, cytotoxic activity against the U251 cells [2]: < 1 nM

B4: Antibody-drug conjugate (11) (antibody, V domains shown)
VH: QVQLVQSGAEVKKPGASVKVSCKASGYTFTNYGMNWVRQAPGQGLKWMGWINTYTGEPTYADAFKGRVTMTRDTSISTAYMELSRLRSDDTAVYYCARDYGDYGMDYWGQGTTVTVSS
VL: DIVMTQSPDSLAVSLGERATINCRASKSVSTSGYSFMHWYQQKPGQPPKLLIYLASNLESGVPDRFSGSGSGTDFTLTISSLQAEDVAVYYCQHSREVPWTFGQGTKVEIKR
modifications: drug-linker 6-maleimidohexanoyl-GGFG-NH-(CH2)3-C(=O)-exatecan (compound of Process 3 of Example 2) on cysteines of the reduced hinge disulfide bonds; average 3.6 per antibody molecule; positions not given
IC50, cytotoxic activity against the U251 cells [2]: < 1 nM

binding result [3]: binds
B5: M30 antibody (antibody, mouse IgG2a, kappa, V domains shown)
VH: EVQLQQSGPELVKPGASVKMSCKASGYTFTNYVMHWVKQKPGQGLEWIGYINPYNDDVKYNEKFKGKATQTSDKSSSTAYMELSSLTSEDSAVYYCARWGYYGSPLYYFDYWGQGTTLTVSS
VL: QIVLSQSPTILSASPGEKVTMTCRASSRLIYMHWYQQKPGSSPKPWIYATSNLASGVPARFSGSGSGTSYSLTISRVEAEDAATYYCQQWNSNPPTFGTGTKLELKR
notes: Mouse monoclonal antibody produced by the B7-H3 hybridoma M30
